Results: PMC2605266

Columns and labels:
[1] = molecular target: T1, GST fused to the cytosolic domain of VAMP8 (human); experiment: pull-down; 5 ug GST fusion protein immobilised on glutathione Sepharose, 5 ug His-tagged Munc18c in 500 ul, overnight at 4 C; binding buffer 150 mM potassium acetate, 1 mM MgCl2, 0.05% Tween 20, 20 mM HEPES pH 7.4; bound Munc18c detected by immunoblot
T1 sequence (Q9BV40 whole entry, looked up): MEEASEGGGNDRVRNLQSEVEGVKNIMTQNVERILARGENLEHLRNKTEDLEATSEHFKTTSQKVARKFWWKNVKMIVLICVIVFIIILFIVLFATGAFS

[2] = molecular target: T2, GST fused to the cytosolic domain of VAMP4 (human); experiment: as above
T2 sequence (O75379 whole entry, looked up): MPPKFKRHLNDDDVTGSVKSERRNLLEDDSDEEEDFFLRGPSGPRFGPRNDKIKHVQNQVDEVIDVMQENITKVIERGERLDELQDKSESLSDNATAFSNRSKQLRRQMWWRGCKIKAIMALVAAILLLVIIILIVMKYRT

binding as percent of that observed for VAMP2 [1]: < 14%
binding as percent of that observed for VAMP2 [2]: < 14%
B1: Munc18c, N-terminal His6-fusion protein (natural protein)
chain: MAPPVSERGLKSVVWRKIKTAVFDDCRKEGEWKIMLLDEFTTKLLSSCCKMTDLLEEGITVIENIYKNREPVRQMKALYFISPTPKSVDCFLRDFGSKSEKKYKAAYIYFTDFCPDSLFNKIKASCSKSIRRCKEINISFIPQESQVYTLDVPDAFYYCYSPDPSNASRKEVVMEAMAEQIVTVCATLDENPGVRYKSKPLDNASKLAQLVEKKLEDYYKIDEKGLIKGKTQSQLLIIDRGFDPVSTVLHELTFQAMAYDLLPIENDTYKYKTDGKEKEAVLEEDDDLWVRVRHRHIAVVLEEIPKLMKEISSTKKATEGKTSLSALTQLMKKMPHFRKQISKQVVHLNLAEDCMNKFKLNIEKLCKTEQDLALGTDAEGQRVKDSMLVLLPVLLNKNHDNCDKIRAVLLYIFGINGTTEENLDRLIHNVKIEDDSDMIRNWSHLGVPIVPPSQQAKPLRKDRSAEETFQLSRWTPFIKDIMEDAIDNRLDSKEWPYCSRCPAVWNGSGAVSARQKPRTNYLELDRKNGSRLIIFVIGGITYSEMRCAYEVSQAHKSCEVIIGSTHILTPRKLLDDIKMLNKSKDKVSFKDE
